± gives the standard deviation of the averaged measurements.
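Further: PSI is a weighted mean of sequencing reads over stability bins, variants kept only with over 10 reads, mCherry proximal and sfGFP distal, peptide attached via GGGS linker.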

The subject of this data set is Saccharomyces cerevisiae. In words: protein stability index of tFT-peptide fusion (C-terminal peptide) (PSI (0-1 scale)); higher = more stable (slower turnover). Conditions: genetic background: wild type; temperature: 30 C.
For SRGIRPYYRLLL, the protein stability index is 0.596 ± 0.0094.

For SRGSMLRRPLFV, the protein stability index came out at 0.571.

SRGTTLDREQQR: the protein stability index is 0.687 ± 0.1.

SRHLALPPPRSF showed a protein stability index of 0.702 ± 0.045.

As for SRIFLFPTPTLF, the protein stability index worked out at 0.651 ± 0.096.

With SRISQSMRFPIK, the protein stability index was 0.691 ± 0.027.

For the sequence SRKLRKSLFKKS, the protein stability index was 0.689 ± 0.045.

The sequence SRLFEFFISRNV yielded a protein stability index of 0.706 ± 0.013.

SRLFSFLYDVTA had a protein stability index of 0.665 ± 0.036.

Take SRLPGLELCNRI: the protein stability index worked out at 0.675 ± 0.041.

Consider SRLPIVGYLTLL, for which the protein stability index turned out to be 0.56 ± 0.036.

The sequence SRPIPSPPPRPV showed a protein stability index of 0.6473 ± 0.002.

With SRPLSSPSPPPS, the protein stability index worked out at 0.723 ± 0.043.

In the case of SRPQTTGPLPPL, the protein stability index amounted to 0.684 ± 0.05.

For SRPTAPKRQTRY, the protein stability index was found to be 0.6886 ± 0.0046.

SRRMFCACYVLS had a protein stability index of 0.585 ± 0.031.

The sequence SRRSKDRAGVWV showed a protein stability index of 0.642 ± 0.0079.

Turning to SRRVAPEPSIPP, the protein stability index came out at 0.683 ± 0.018.

In turn, SRSGFWCYLLFL displayed a protein stability index of 0.553 ± 0.039.

The sequence SRSPPPPALPPL gave a protein stability index of 0.702 ± 0.05.

For the sequence SRSRCGSRAVAF, the protein stability index was determined as 0.694 ± 0.029.

In the case of SRTLPPPSPGLH, the protein stability index was found to be 0.714 ± 0.013.

As for SRTWGDVVSSGT, the protein stability index was 0.715 ± 0.0099.

Sequence SRVCPLLAPSLL came in with a protein stability index of 0.671 ± 0.067.

Sequence SRVKMKGTIRER gave a protein stability index of 0.701 ± 0.021.

In turn, SRVYRSCKNVKR displayed a protein stability index of 0.7383 ± 0.0069.

SRWDPLYVPWRM had a protein stability index of 0.696 ± 0.014.

As to SRYYMDRGTLLE, the protein stability index came to 0.625 ± 0.018.

As to SSASPVPVLPLT, the protein stability index was 0.7 ± 0.018.

SSCAWGGGLEVG gave a protein stability index of 0.683 ± 0.053.

Sequence SSCGTITYLTPY gave a protein stability index of 0.745 ± 0.015.

Regarding SSCSDLTKRLQQ, the protein stability index was 0.669 ± 0.054.

In turn, SSDSVPIVVGVV showed a protein stability index of 0.66 ± 0.056.

SSEGTRTLIPPD displayed a protein stability index of 0.7 ± 0.011.

Sequence SSFLSLYSIPLP showed a protein stability index of 0.734 ± 0.044.

SSGLMGFLFPMQ showed a protein stability index of 0.721 ± 0.017.

In the case of SSHSFFLFRISL, the protein stability index was 0.608 ± 0.061.

SSKLFVVLPVSR: the protein stability index was found to be 0.599 ± 0.028.

Regarding SSLPASPAPPHL, the protein stability index is 0.702 ± 0.066.

SSLPPSDQPPSP registered a protein stability index of 0.733 ± 0.071.

SSLWVGFLGCVG: the protein stability index was 0.646 ± 0.008.

In turn, SSNLVDTCSPIG came in with a protein stability index of 0.778 ± 0.081.

On to SSPARASLTRPA, for which the protein stability index is 0.674 ± 0.038.

The sequence SSPESPPTPRSL displayed a protein stability index of 0.678 ± 0.064.

SSPHQVLTTRAP returned a protein stability index of 0.705 ± 0.13.

Turning to SSPIIAGFPQQK, the protein stability index came out at 0.676 ± 0.016.

Sequence SSPLPPPPFAPL had a protein stability index of 0.702 ± 0.022.

Sequence SSPPPPPRPAPT gave a protein stability index of 0.681 ± 0.15.

In the case of SSPPPRSLPSPP, the protein stability index amounted to 0.714 ± 0.046.

SSPPWPILHSPP showed a protein stability index of 0.6952 ± 0.0014.

SSPQASILIRDF: the protein stability index amounted to 0.778 ± 0.1.

With SSPSPASSPPPP, the protein stability index was found to be 0.677 ± 0.057.

SSPVPLPPNPPA gave a protein stability index of 0.696 ± 0.038.

In the case of SSRALFLPSFLP, the protein stability index was determined as 0.731 ± 0.04.

SSSAPSSVPPLG returned a protein stability index of 0.734 ± 0.016.

Sequence SSSCRCSRVIGR had a protein stability index of 0.589 ± 0.064.

Consider SSSLHPRPSPPL, for which the protein stability index was determined as 0.692 ± 0.043.

Regarding SSSLPPPPHAFP, the protein stability index was found to be 0.672 ± 0.036.

In turn, SSSRLLALSSLH returned a protein stability index of 0.694 ± 0.053.

SSSSSSALSGFE showed a protein stability index of 0.704 ± 0.051.

SSSVPFRRYTHD returned a protein stability index of 0.711 ± 0.017.

With SSSVSARAVSLP, the protein stability index was 0.6958 ± 0.0033.

With SSTERLELERMS, the protein stability index came out at 0.705 ± 0.021.

Regarding SSYFCESWMFDL, the protein stability index came to 0.756 ± 0.023.

As for SSYHPPPSCLLP, the protein stability index was 0.74596 ± 0.00061.

STAPQDPARPSE registered a protein stability index of 0.707 ± 0.028.

Take STCFPSIVRLGP: the protein stability index was 0.612 ± 0.05.

For the sequence STDNNLISEPKT, the protein stability index turned out to be 0.731 ± 0.097.

STDQFFLFFCVG: the protein stability index was determined as 0.735 ± 0.2.

As for STFYSALRVGTR, the protein stability index was determined as 0.668 ± 0.019.

As for STGAVREFRFFA, the protein stability index was 0.643 ± 0.053.

As for STGLDPAAGAHL, the protein stability index is 0.657 ± 0.06.

Sequence STGTASAHRVQI gave a protein stability index of 0.66 ± 0.011.

Take STHSRLCATVPP: the protein stability index is 0.591 ± 0.027.

As to STPLRNLEITIA, the protein stability index was determined as 0.679 ± 0.15.

Sequence STPPPPALPEYQ yielded a protein stability index of 0.698 ± 0.023.

STPSPQPYIAPT had a protein stability index of 0.735 ± 0.06.

On to STSACPTPRTCS, for which the protein stability index came out at 0.6192 ± 0.001.

Take STSHSFGVLIAS: the protein stability index was 0.662 ± 0.0094.

With STSIRHGLHSVE, the protein stability index is 0.673 ± 0.05.

These data come from the supplement of paper PMC10724198.
